Reference: article PMC6764859 (Nature chemical biology, 2019)

Experiments:
[1] = target: PTCH1_(ECD1), biotinylated (BLI) (human, UniProt Q13635, biotin on the BirA-recognition sequence); assay: BLI
[2] = target: PTCH1_(ECD2), biotinylated (BLI) (human, UniProt Q13635, biotin on the BirA-recognition sequence); assay: BLI
Sequence of PTCH1_(ECD2), biotinylated (BLI) (Q13635 772-1023): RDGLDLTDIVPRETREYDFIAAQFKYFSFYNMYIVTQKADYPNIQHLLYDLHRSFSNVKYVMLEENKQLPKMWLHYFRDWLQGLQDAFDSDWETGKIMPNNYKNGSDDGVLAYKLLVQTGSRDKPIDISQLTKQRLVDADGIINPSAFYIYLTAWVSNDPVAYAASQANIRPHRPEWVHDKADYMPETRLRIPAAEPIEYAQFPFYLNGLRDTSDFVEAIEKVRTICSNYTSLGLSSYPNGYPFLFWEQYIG

Sequence of PTCH1_(ECD1), biotinylated (BLI) (Q13635 139-428): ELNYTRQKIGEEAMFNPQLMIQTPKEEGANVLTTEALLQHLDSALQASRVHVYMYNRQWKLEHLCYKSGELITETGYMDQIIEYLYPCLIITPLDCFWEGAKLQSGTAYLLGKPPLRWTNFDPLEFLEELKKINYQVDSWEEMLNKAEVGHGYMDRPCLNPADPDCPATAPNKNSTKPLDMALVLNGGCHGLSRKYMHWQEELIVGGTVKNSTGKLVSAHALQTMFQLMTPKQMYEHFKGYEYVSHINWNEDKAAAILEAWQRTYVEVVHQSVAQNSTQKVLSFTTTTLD

Row | Binder | binding result [1] | binding result [2]
1 | NB64 (VHH) VHH: QVQLQESGGGLVQPGGSLRLSCAASGSGNSINVMGWYRQAPGKPRELVAEITSSGTTNYADSVKGRFSISRDNAKNTVPLQMNSLKPEDTAIYYCSAVLVRFGGLRRSYWGQGTQVTVSS | binds | –
2 | NB75 (VHH) VHH: QVQLQESGGGLVQAGDSLTLSCAASGRTFSSYTMGWFRQAPGKERDFIAGITSTGSSTYYADSVKGRFTISRDNAKNTVYLQMNSLKPEDTADYYCARKVAGGSYYQKDKYDYWGQGTQVTVSS | – | binds
